Data from US10894811B2, “Peptide inhibitors of calcium channels” (The University of North Carolina at Chapel Hill, priority 2016, dated 2021).
“Also recorded” adds a separate entry of the source.

Target: T1, TRPC3 (Homo sapiens, UniProt Q13507)
T1 construct: host or cells: HEK293T
T1 sequence (Q13507 74-921 limits assumed): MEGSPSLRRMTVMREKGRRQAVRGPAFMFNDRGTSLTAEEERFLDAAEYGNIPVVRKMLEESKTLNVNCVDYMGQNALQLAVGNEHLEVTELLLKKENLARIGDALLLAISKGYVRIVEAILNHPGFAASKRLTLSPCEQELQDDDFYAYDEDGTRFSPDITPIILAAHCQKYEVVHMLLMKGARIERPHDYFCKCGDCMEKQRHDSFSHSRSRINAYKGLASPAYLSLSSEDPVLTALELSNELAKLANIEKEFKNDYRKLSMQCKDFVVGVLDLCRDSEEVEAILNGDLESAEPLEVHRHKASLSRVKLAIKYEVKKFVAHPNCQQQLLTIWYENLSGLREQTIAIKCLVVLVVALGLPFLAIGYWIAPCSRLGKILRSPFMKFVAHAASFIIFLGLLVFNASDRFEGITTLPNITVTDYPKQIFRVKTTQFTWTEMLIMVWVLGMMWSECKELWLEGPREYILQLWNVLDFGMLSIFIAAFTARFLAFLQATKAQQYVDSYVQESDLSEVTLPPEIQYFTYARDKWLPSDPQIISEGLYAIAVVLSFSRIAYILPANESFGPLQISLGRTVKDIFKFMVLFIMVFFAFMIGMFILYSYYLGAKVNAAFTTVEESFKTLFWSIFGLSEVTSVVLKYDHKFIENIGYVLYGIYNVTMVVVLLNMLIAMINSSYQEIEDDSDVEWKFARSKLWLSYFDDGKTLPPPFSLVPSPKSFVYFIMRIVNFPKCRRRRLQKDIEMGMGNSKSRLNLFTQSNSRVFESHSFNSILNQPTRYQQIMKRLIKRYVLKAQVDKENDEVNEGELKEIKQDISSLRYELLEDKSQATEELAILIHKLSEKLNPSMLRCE
Test: Co-immunoprecipitation in HEK293T cell lysates (V5-SPLUNC1 / Myc-TRPC3)
Assay type: binding
Conditions: HEK293T cells cotransfected with V5-SPLUNC1 and Myc-TRPC3
Experimental: DNA constructs: Yellow fluorescent protein (YFP) tagged human Orai1 and Myc tagged TRPC3 were gifts from Dr. Craig Montell (Addgene plasmid #25902) and Dr. Anjana Rao (Addgene plasmid #19756), respectively. HA tagged human Orai1 was a generous gift from Dr. Patrick G Hogan at La Jolla Institute for Allergy & Immunology. pcDNA3.1(+)-V5-SPLUNC1 was a generous gift from Dr. Colin D Bingle at the University of Sheffield.
For immunoprecipitation, cell lysates were collected at 48 h post-transfection in Pierce® IP lysis buffer in the presence of 1× protease inhibitor cocktail (PIC) (Roche). Cell lysates were pre-cleared with protein A/G agarose beads and then incubated with 1 μg of antibodies against HA (BioLegend) or V5 (Invitrogen) with protein A/G agarose beads on a rotator at 4° C. overnight. After three washes with IP lysis buffer, immunoprecipitated complexes were eluted in sample buffer (50 mM Tris-HCl [pH 6.8], 2% sodium dodecyl sulfate (SDS), 10% glycerol, 5% (v/v) β-mercaptoethanol (BME), 0.1% bromophenol blue) by heating the samples at 95° C. for 5 min, electrophoresed through SDS-polyacrylamide gels, and subjected to immunoblot analysis.

B1: SPLUNC1: Short palate, lung and nasal epithelium clone 1, recombinant full length protein (protein, listed as Homo sapiens)
chain: MFQTGGLIVFYGLLAQTMAQFGGLPVPLDQTLPLNVNPALPLSPTGLAGSLTNALSNGLLSGGLLGILENLPLLDILKPGGGTSGGLLGGLLGKVTSVIPGLNNIIDIKVTDPQLLELGLVQSPDGHRLYVTIPLGIKLQVNTPLVGASLLRLAVKLDITAEILAVRDKQERIHLVLGDCTHSPGSLQISLLDGLGPLPIQGLLDSLTGILNKVLPELVQGNVCPLVNEVLRGLDITLVHDIVNMLIHGLQFVIKV
co-immunoprecipitation with TRPC3: but not an alternate Ca^2+ channel (TRPC3), could be co-immunoprecipitated; also recorded: does not interact with TRPC3
